This is an account of results in patent US20190144917.

The target of data set [1] is T1, C1-NPs: fluorescein-conjugated MMP substrate peptide C1 (FAM-sk-PLGLEEA-GC) coupled to iron oxide nanoparticles (not fully specified).
T1 chain: SKPLGLEEAGC

Data set [2] has as its target T2, alternate substrate/reporter peptide eGvndneeGffsarKsRLVGEGC (second substrate RLVGEGC), unmodified.
T2 chain: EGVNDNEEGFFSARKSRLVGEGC

Data set [3] deals with T3, alternate substrate/reporter peptide eGvndneeGffsarKsRLVGEGC veiled with DMNPE.
T3 chain: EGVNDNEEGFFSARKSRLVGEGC

Data set [4] has as its target T4, S2: Biotin-CGPVPLSLVMK(Cy7)eGvndneeGffsar-NH2.
T4 chain: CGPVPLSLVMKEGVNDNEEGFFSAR

B1: recombinant MMP1 (protein)
chain: FVLTEGNPRWEQTHLTYRIENYTPDLPRADVDHAIEKAFQLWSNVTPLTFTKVSEGQADIMISFVRGDHRDNSPFDGPGGNLAHAFQPGPGIGGDAHFDEDERWTNNFREYNLHRVAAHELGHSLGLSHSTDIGALMYPSYTFSGDVQLAQDDIDGIQAIYGRSQNPVQ
As to B1, in data set [1], the “proteolysis (fluorescence dequenching)” value is “significantly cleaved by MMP13, 7, 1, and 9”.

B2: plasmin (protein)
chain: KVYLSECKTGNGKNYRGTMSKTKNGITCQKWSSTSPHRPRFSPATHPSEGLEENYCRNPDNDPQGPWCYTTDPEKRYDYCDILECEEECMHCSGENYDGKISKTMSGLECQAWDSQSPHAHGYIPSKFPNKNLKKNYCRNPDRELRPWCFTTDPNKRWELCDIPRCTTPPPSSGPTYQCLKGTGENYRGNVAVTVSGHTCQHWSAQTPHTHNRTPENFPCKNLDENYCRNPDGKRAPWCHTTNSQVRWEYCKIPSCDSSPVSTEQLAPTAPPELTPVVQDCYHGDGQSYRGTSSTTTTGKKCQSWSSMTPHRHQKTPENYPNAGLTMNYCRNPDADKGPWCFTTDPSVRWEYCNLKKCSGTEASVVAPPPVVLLPDVETPSEEDCMFGNGKGYRGKRATTVTGTPCQDWAAQEPHRHSIFTPETNPRAGLEKNYCRNPDGDVGGPWCYTTNPRKLYDYCDVPQCAAPSFDCGKPQVEPKKCPGRVVGGCVAHPHSWPWQVSLRTRFGMHFCGGTLISPEWVLTAAHCLEKSPRPSSYKVILGAHQEVNLEPHVQEIEVSRLFLEPTRKDIALLKLSSPAVITDKVIPACLPSPNYVVADRTECFITGWGETQGTFGAGLLKEAQLPVIENKVCNRYEFLNGRVQSTELCAGHLAGGTDSCQGDSGGPLVCFEKDKYILQGVTSWGLGCARPNKPGVYVRVSRFVTWIEGVMRNN
On to B2, for which the proteolysis entry is on record as “proteolysis by plasmin” in data set [2] and “reduced proteolysis by plasmin, which was recovered by UV exposure” in data set [3].

B3: recombinant MMP7 (protein)
chain: YSLFPNSPKWTSKVVTYRIVSYTRDLPHITVDRLVSKALNMWGKEIPLHFRKVVWGTADIMIGFARGAHGDSYPFDGPGNTLAHAFAPGTGLGGDAHFDEDERWTDGSSLGINFLYAATHELGHSLGMGHSSDPNAVMYPTYGNGDPQNFKLSQDDIKGIQKLYGKRSNSRKK
In the case of B3, the “proteolysis (fluorescence dequenching)” value in data set [1] is “significantly cleaved by MMP13, 7, 1, and 9”. In data set [4], the “relative proteolysis (Cy7 signal after streptavidin depletion of uncleaved peptide)” value was “cleaved efficiently by MMP7 and MMP19”.
